In patent US20240139295A1 (priority 2021, published 2024):

B1: LysP53: lysin from the genome of bacteriophage P53, amino acid sequence SEQ ID NO: 2, includes P104, about 24 kDa, expressed in E. coli (protein)
chain: MTMTTKRIFEHMRPNLTDSQVQALYKLMEKGADLDTIAQFAGVSPLVSTADVKQPSGFKFSQTSLKRLEGVNPKLVQVVNRALEISKEDFMVIEGVRTKESAWANWGKGRTAAQCQAAGVPTKYAQPSLAKVTWLTDPLKSKHMTGHAVDLAPIPLDWNDLKRFDLMAQAMFQASAELNIPIRWGADWDNDGVFREKGETDSPHFELAG

Experiments:
[1] = test system: Gram-negative bacteria; experiment: Activity comparison of P104 and LysP53 in vitro, overall; format: cell-based; conditions: stable phase, 37° C., 1 h
Protocol: (§1) A variety of strains including Acinetobacter baumannii, Pseudomonas aeruginosa, Klebsiella pneumoniae and Escherichia coli are cultured to stable phase (OD600nm between 1.2-1.4), respectively, and each precipitate is collected by centrifugation at 4° C., rinsed once with Tris-HCl buffer, and then the rinsed precipitate is dissolved in Tris-HCl buffer to obtain the bacterial solution. At the same time, mixed solutions including the same amount of the buffer and the above bacterial solution are prepared and used as the negative controls. After incubation at 37° C. for 1 h, the number (CFU) of the bacteria in the solutions are counted by plating on agar plates.

[2] = test system: A. baumannii WHG40137; experiment: Time dependence of lysin LysP53 lysing A. baumannii WHG40137 (CFU plate count); format: cell-based, Acinetobacter baumannii; conditions: 100 μg/mL LysP53, logarithmic phase, 37° C.
Protocol: Acinetobacter baumannii (A. baumannii) WHG40137 is cultured to logarithmic phase (OD600nm between 0.4-0.6), and the precipitate is collected by low-temperature centrifugation, rinsed once with Tris-hydrochloride (Tris-HCl) buffer, and then the rinsed precipitate is dissolved in the buffer to obtain an A. baumannii WHG40137 bacterial solution. The lysin LysP53 prepared in the embodiment 2 is added in and mixed with the A. baumannii WHG40137 bacterial solution to make the final concentration of the lysin LysP53 to be 100 micrograms per milliliter (μg/mL). At the same time, a mixed solution including the same amount of the buffer and the above bacterial solution is prepared and used as negative control. During incubation of the solutions at 37° C., aliquots were sampled, respectively, at different times and used to count the number (colony-forming unit abbreviated as CFU) of the bacteria in the solutions by plating on agar plates.

[3] = test system: A. baumannii WHG40137; experiment: Lytic activity of LysP53 against A. baumannii WHG40137 at different growth periods (CFU plate count); format: cell-based, Acinetobacter baumannii; conditions: 100 μg/mL LysP53, 37° C., 1 h; logarithmic phase (OD600 0.4-0.6) vs stable phase (OD600 1.2-1.4)
Protocol: A. baumannii WHG40137 is cultured to logarithmic phase (OD600nm between 0.4-0.6) or stable phase (OD600nm between 1.2-1.4) first. Then, the precipitates are collected by centrifugation at 4° C., rinsed once with Tris-HCl buffer, and dissolved in Tris-HCL buffer to obtain an A. baumannii WHG40137 bacterial solution. Finally, the lysin LysP53 prepared in the embodiment 2 is taken and mixed with the A. baumannii WHG40137 bacterial solution to make the final concentration of the lysin LysP53 to be 100 μg/mL. At the same time, a mixed solution including the same amount of the buffer and the above bacterial solution is prepared and used as the negative control. After incubation at 37° C. for 1 h, the number (CFU) of the bacteria in the solutions are counted by plating on agar plates.

[4] = test system: A. baumannii WHG40137; experiment: Effect of pH on lytic activity of LysP53 against A. baumannii WHG40137 (CFU plate count); format: cell-based, Acinetobacter baumannii; conditions: 100 μg/mL LysP53, logarithmic phase, 1 h
Protocol: A. baumannii WHG40137 is cultured to logarithmic phase (OD600nm between 0.4-0.6) first. Then, the precipitates are collected by centrifugation at 4° C., rinsed once with Tris-HCl buffer, and dissolved in Tris-HCL buffer with different pH values (pH 5-8) to obtain A. baumannii WHG40137 bacterial solutions. Finally, the lysin LysP53 prepared in the embodiment 2 is taken and mixed with the A. baumannii WHG40137 bacterial solutions to make the final concentration of the lysin LysP53 to be 100 μg/mL. At the same time, mixed solutions including the same amount of the buffer and the above bacterial solution are prepared and used as the negative controls. After incubation at 37° C. for 1 h, the number (CFU) of the bacteria in the solutions are counted by plating on agar plates.

[5] = test system: Acinetobacter baumannii; experiment: Lysis spectrum of LysP53 in vitro (CFU plate count); format: cell-based; conditions: 100 μg/mL LysP53, stable phase, 37° C., 1 h
Protocol: (§2) A variety of strains including Acinetobacter baumannii, Pseudomonas aeruginosa, Klebsiella pneumoniae and Escherichia coli are cultured to stable phase (OD600nm between 1.2-1.4), respectively, and each precipitate is collected by centrifugation at 4° C., rinsed once with Tris-HCl buffer, and then the rinsed precipitate is dissolved in Tris-HCl buffer to obtain the bacterial solution. The lysin LysP53 prepared in the embodiment 2 is taken and mixed with the above bacterial solutions, respectively, to make the final concentration of the lysin LysP53 to be 100 μg/mL. At the same time, mixed solutions including the same amount of the buffer and each of the above bacterial solutions are prepared and used as negative controls. After incubation at 37° C. for 1 h, the number (CFU) of the bacteria in the solutions are counted by plating on agar plates.

[6] = test system: Escherichia coli; experiment: as above; format: cell-based; conditions: 100 μg/mL LysP53, stable phase, 37° C., 1 h
Protocol: as §2

[7] = test system: Klebsiella pneumoniae; experiment: as above; format: cell-based; conditions: 100 μg/mL LysP53, stable phase, 37° C., 1 h
Protocol: as §2

[8] = test system: Pseudomonas aeruginosa; experiment: as above; format: cell-based; conditions: 100 μg/mL LysP53, stable phase, 37° C., 1 h
Protocol: as §2

[9] = test system: Gram-negative bacteria; experiment: Lysis spectrum of LysP53 in vitro, overall; format: cell-based; conditions: 100 μg/mL LysP53, stable phase, 37° C., 1 h
Protocol: as §2

[10] = test system: A. baumannii WHG40137; experiment: Effect of EDTA concentration on lytic activity of LysP53 against A. baumannii WHG40137 (CFU plate count); format: cell-based, Acinetobacter baumannii; conditions: 100 μg/mL LysP53, stable phase, EDTA 0, 62.5, 125, 250, 500 μM, 37° C., 1 h
Protocol: A. baumannii WHG40137 is cultured to stable phase (OD600nm between 1.2-1.4), and the precipitate is collected by centrifugation at 4° C., rinsed once with a Tris-HCl buffer, and is dissolved in Tris-HCl buffer to obtain an A. baumannii WHG40137 bacterial solution. The lysin LysP53 prepared in the embodiment 2 is taken and mixed with the A. baumannii WHG40137 bacterial solution containing EDTA at different concentrations (0 μM, 62.5 μM, 125 μM, 250 μM, and 500 μM) to make the final concentration of the lysin LysP53 to be 100 μg/mL. At the same time, mixed solutions including the same amount of the Tris-HCl buffer solution and each of the above bacterial solutions are used as negative controls. After incubation at 37° C. for 1 h, the number (CFU) of the bacteria in the solutions are counted by plating on agar plates.

[11] = test system: A. baumannii WHG40137; experiment: Lytic activity of LysP53 against A. baumannii WHG40137 on burned skin surfaces of mice; format: in vivo, Acinetobacter baumannii; conditions: female BALB/c mice, burn site infected 24 h, 14 μg LysP53 topical vs 4 grams (g) minocycline, 4 h after treatment
Protocol: Female BALB/c mice aged 6-8 weeks are anesthetized by intraperitoneal injection of 40 milligrams per kilogram (mg/kg) pentobarbital (also referred to as pentobarbitone), and then shaved with an electric razor to remove 2 square centimeters (cm 2) of hair on the back. Partial burn can be achieved by exposing the naked skin to water at 65° C. for 12 s. 10 μL, of A. baumannii WHG40137 with a concentration of 10^8 CFU/mL is taken and inoculated at the burn site, and after colonization for 24 h, the mice are randomly divided into three groups. In the first group, there are 12 mice, and 14 μg of the lysin LysP53 is applied to the burn site of each mouse. In the second group, there are 12 mice, and 4 grams (g) minocycline is applied to the burn site of each mouse. In the third group, there are 9 mice, and the same amount of buffer solution is applied to the burn site of each mouse. Four hours after treatment, the mice are euthanatized and the infected skin is excised, infiltrated with 1 mL of phosphate buffered saline with Tween® 20 (PBST) and 0.1% Triton X-100 for 2 min, and homogenized with a tissue cell disruptor (NewZongKe, Wuhan, China). Finally, an aliquot of the suspension is diluted and plated to an LB plate containing 4 μg/mL of gentamicin and 2 μg/mL of meropenem, and the number of the colonies are counted after overnight culture.

[12] = test system: Acinetobacter baumannii; experiment: Activity comparison of P104 and LysP53 in vitro (CFU plate count); format: cell-based; conditions: stable phase, 37° C., 1 h
Protocol: as §1

[13] = test system: Escherichia coli; experiment: as above; format: cell-based; conditions: stable phase, 37° C., 1 h
Protocol: as §1

[14] = test system: Klebsiella pneumoniae; experiment: as above; format: cell-based; conditions: stable phase, 37° C., 1 h
Protocol: as §1

[15] = test system: Pseudomonas aeruginosa; experiment: as above; format: cell-based; conditions: stable phase, 37° C., 1 h
Protocol: as §1

Molecule | lytic activity against Gram-negative bacteria [1] | lytic activity against Acinetobacter baumannii WHG40137 [2] | concentration of Acinetobacter baumannii WHG40137 after incubation for 15 min ([2]; Tris-HCl buffer, 15 min) | concentration of Acinetobacter baumannii WHG40137 after incubation for 1 h ([2]; Tris-HCl buffer, 1 h) | lytic activity in logarithmic phase versus stable phase [3] | lytic activity in pH range 5.0-6.5 versus pH range 7.0-8.0 ([4]; 37° C.) | concentration of the bacteria after incubation with LysP53 at pH 5.0-6.5 ([4]; pH 5.0-6.5, 37° C.) | lytic effect on a variety of Acinetobacter baumannii strains [5] | lytic effect on Escherichia coli [6] | lytic effect on Klebsiella pneumoniae [7] | lytic effect on Pseudomonas aeruginosa [8] | spectrum in lysing Gram-negative bacteria [9] | lytic activity with increasing EDTA concentration [10] | lytic activity on mouse skin compared with minocycline [11] | lytic activity against Acinetobacter baumannii, LysP53 compared with P104 [12] | activity against Escherichia coli, LysP53 compared with P104 [13] | activity against Klebsiella pneumoniae, LysP53 compared with P104 [14] | activity against Pseudomonas aeruginosa, LysP53 compared with P104 [15]
P104: antibacterial peptide found in the genome of bacteriophage P53, amino acid sequence SEQ ID NO: 1, chemically synthesized (MTMTTKRIFEHMRPNLTDSQVQALYKLMEKGAD) | broad-spectrum lytic activity |  |  |  |  |  |  |  |  |  |  |  |  |  |  |  |  | 
B1 | broad-spectrum lytic activity | good lytic activity | greatly reduced | about 10 CFU/mL | higher lytic activity | better lytic activity | about 10 CFU/mL | good lytic effect | good lytic effect | good lytic effect | good lytic effect | broad spectrum | gradually higher | higher lytic activity | stronger lytic activity | comparable activity | comparable activity | comparable activity
